B1: IQGAP2 GTPase-activating protein (GAP)-related domain (residues 875-1257) (domain or fragment, human)
chain: GAMSKERRKTLETYQQLFYLLQTNPLYLAKLIFQMPQNKSTKFMDTVIFTLYNYASNQREEYLLLKLFKTALEEEIKSKVDQVQDIVTGNPTVIKMVVSFNRGARGQNTLRQLLAPVVKEIIDDKSLIINTNPVEVYKAWVNQLETQTGEASKLPYDVTTEQALTYPEVKNKLEASIENLRRVTDKVLNSIISSLDLLPYGLRYIAKVLKNSIHEKFPDATEDELLKIVGNLLYYRYMNPAIVAPDGFDIIDMTAGGQINSDQRRNLGSVAKVLQHAASNKLFEGENEHLSSMNNYLSETYQEFRKYFKEACNVPEPEEKFNMDKYTDLVTVSKPVIYISIEEIISTHSLLLEHQDAIAPEKNDLLSELLGSLGEVPTVESFLGEG
B2: IQGAP1 GTPase-activating protein (GAP)-related domain (residues 962-1345) (domain or fragment)
chain: GAMSKEKREKLEAYQHLFYLLQTNPTYLAKLIFQMPQNKSTKFMDSVIFTLYNYASNQREEYLLLRLFKTALQEEIKSKVDQIQEIVTGNPTVIKMVVSFNRGARGQNALRQILAPVVKEIMDDKSLNIKTDPVDIYKSWVNQMESQTGEASKLPYDVTPEQALAHEEVKTRLDSSIRNMRAVTDKFLSAIVSSVDKIPYGMRFIAKVLKDSLHEKFPDAGEDELLKIIGNLLYYRYMNPAIVAPDAFDIIDLSAGGQLTTDQRRNLGSIAKMLQHAASNKMFLGDNAHLSIINEYLSQSYQKFRRFFQTACDVPELQDKFNVDEYSDLVTLTKPVIYISIGEIINTHTLLLDHQDAIAPEHNDPIHELLDDLGEVPTIESLIGESS

What was measured:
[1] = molecular target: B2; experiment: ITC
[2] = molecular target: B1; experiment: ITC
[3] = molecular target: B1; experiment: crystal structure
[4] = molecular target: human hydrolase deficient (Q61L) Rac1 (residues 1-177), GTP-bound (human, UniProt P63000 1-177, Q61L); experiment: ITC
crystal structure = molecular target: the molecule itself; experiment: crystal structure

Row | Binder | binding result [4] | further results
1 | human hydrolase deficient (Q61L) Cdc42 (residues 1-177), GTP-loaded (domain or fragment) not shown | – | stoichiometry N [1]: 2 Cdc42 per GRD; stoichiometry N [2]: 2 Cdc42 per GRD; stoichiometry N [3]: 2 Cdc42 per GRD2
2 | B1 | binds | stoichiometry N (crystal structure): 2
3 | B2 | binds | –
4 | GRD2 6xAla mutant (N924A, N928A, Q929A, R930A, E931A, S1204A) (domain or fragment) GAMASKERRKTLETYQQLFYLLQTNPLYLAKLIFQMPQNKSTKFMDTVIFTLYAYASAAAAEYLLLKLFKTALEEEIKSKVDQVQDIVTGNPTVIKMVVSFNRGARGQNTLRQLLAPVVKEIIDDKSLIINTNPVEVYKAWVNQLETQTGEASKLPYDVTTEQALTYPEVKNKLEASIENLRRVTDKVLNSIISSLDLLPYGLRYIAKVLKNSIHEKFPDATEDELLKIVGNLLYYRYMNPAIVAPDGFDIIDMTAGGQINSDQRRNLGSVAKVLQHAASNKLFEGENEHLSSMNNYLSETYQEFRKYFKEACNVPEPEEKFNMDKYTDLVTVAKPVIYISIEEIISTHSLLLEHQDAIAPEKNDLLSELLGSLGEVPTVESFLGEG | binds | –
5 | GRD1 6xAla mutant (N1011A, N1015A, Q1016A, R1017A, E1018A, T1291A) (domain or fragment) GAMASKEKREKLEAYQHLFYLLQTNPTYLAKLIFQMPQNKSTKFMDSVIFTLYAYASAAAAEYLLLRLFKTALQEEIKSKVDQIQEIVTGNPTVIKMVVSFNRGARGQNALRQILAPVVKEIMDDKSLNIKTDPVDIYKSWVNQMESQTGEASKLPYDVTPEQALAHEEVKTRLDSSIRNMRAVTDKFLSAIVSSVDKIPYGMRFIAKVLKDSLHEKFPDAGEDELLKIIGNLLYYRYMNPAIVAPDAFDIIDLSAGGQLTTDQRRNLGSIAKMLQHAASNKMFLGDNAHLSIINEYLSQSYQKFRRFFQTACDVPELQDKFNVDEYSDLVTLAKPVIYISIGEIINTHTLLLDHQDAIAPEHNDPIHELLDDLGEVPTIESLIGESS | binds | –
